Reference: WO2011004847A1 (dated 2011)
Several values for one entry are separate records, joined by “and”; a condition that tells them apart may be missing. Equal entries are not always repeated.

Target: T1, human α9 integrin molecule expressed on SW480 cells (human, UniProt Q13797 30-1035)
T1 sequence (looked up): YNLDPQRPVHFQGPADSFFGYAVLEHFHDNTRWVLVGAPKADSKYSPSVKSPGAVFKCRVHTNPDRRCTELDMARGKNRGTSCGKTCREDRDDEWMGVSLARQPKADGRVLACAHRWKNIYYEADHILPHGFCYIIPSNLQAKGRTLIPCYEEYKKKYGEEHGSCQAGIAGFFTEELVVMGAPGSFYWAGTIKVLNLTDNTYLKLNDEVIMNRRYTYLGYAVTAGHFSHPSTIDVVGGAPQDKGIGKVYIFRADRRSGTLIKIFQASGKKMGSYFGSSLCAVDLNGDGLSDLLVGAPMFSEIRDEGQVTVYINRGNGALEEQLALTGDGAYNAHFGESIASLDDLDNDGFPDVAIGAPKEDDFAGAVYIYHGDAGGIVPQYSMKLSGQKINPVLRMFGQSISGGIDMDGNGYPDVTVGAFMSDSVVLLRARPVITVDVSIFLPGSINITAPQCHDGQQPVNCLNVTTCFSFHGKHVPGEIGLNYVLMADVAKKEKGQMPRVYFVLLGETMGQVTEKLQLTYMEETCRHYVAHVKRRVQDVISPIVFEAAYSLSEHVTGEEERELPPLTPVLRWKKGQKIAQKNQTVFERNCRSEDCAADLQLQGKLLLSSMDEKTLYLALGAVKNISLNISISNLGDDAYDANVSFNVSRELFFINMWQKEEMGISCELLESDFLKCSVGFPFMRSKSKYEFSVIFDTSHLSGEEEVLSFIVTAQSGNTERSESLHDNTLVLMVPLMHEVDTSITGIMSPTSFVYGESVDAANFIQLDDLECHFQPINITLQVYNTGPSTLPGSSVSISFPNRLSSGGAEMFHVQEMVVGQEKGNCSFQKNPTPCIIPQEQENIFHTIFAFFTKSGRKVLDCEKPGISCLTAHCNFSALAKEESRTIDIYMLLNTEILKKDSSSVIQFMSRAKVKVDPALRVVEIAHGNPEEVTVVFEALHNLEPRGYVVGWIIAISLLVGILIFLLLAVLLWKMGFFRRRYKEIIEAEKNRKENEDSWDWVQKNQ
Assay: cell-based or functional assay

B1: mouse anti-human α9 integrin antibody Y9A2 (antibody, V domains shown)
VH: QVQLQQSGAELANPGASVKMSCKASGYTLTTYWMHWVKQRPGQGLEWIGYINPSSGYTEYNQKFKDKATLTADKSSSTAYMQLTSLTSEDSAVYYCAIYGDYGDFYFDYWGQGTTLTVSS
VL: SIVMTQTPKFLLVSAGDRVTMTCKASQSVNTDVAWFQQKPGQSPKLLIYFASNHYTGVPDRFTGSGYGTDFTFTISTVQAEDLAIYFCRQDYSSPFTFGGGTKLEIKR
B1 was tested, and the “IC50 (μg/mL), cell adhesion inhibition test” value was 0.07 µg/mL and 0.039 µg/mL and the “concentration giving significant inhibition of migration of SW480/hα9 cells toward nOPN-RAA” value was 50 µg/mL.

B2: RY9A2v12 (W33FM34L) 012 antibody (antibody, human IgG1, kappa, V domains shown)
VH: QVQLVQSGAEVKKPGSSVKVSCKASGYTLTTYFLHWVRQAPGQGLEWMGYINPSSGYTEYNQKFQGRVTITADKSTSTAYMELSSLRSEDTAVYYCAIYGDYGDFYFDYWGQGTTVTVSS
VL: DIQMTQSPSSLSASVGDRVTITCRASQSVNTDVAWYQQKPGKAPKLLIYFASNHYTGVPSRFSGSGSGTDFTFTISSLQPEDIATYYCRQDYSSPFTFGGGTKVEIKR
For B2, the “cell adhesion inhibitory activity relative to mouse Y9A2 antibody” value was roughly 4 fold and the “concentration giving significant inhibition of migration of SW480/hα9 cells toward nOPN-RAA” value was 5 µg/mL.

B3: RY9A2v12 (W33YM34L) 012 antibody (antibody, human IgG1, kappa, V domains shown)
VH: QVQLVQSGAEVKKPGSSVKVSCKASGYTLTTYYLHWVRQAPGQGLEWMGYINPSSGYTEYNQKFQGRVTITADKSTSTAYMELSSLRSEDTAVYYCAIYGDYGDFYFDYWGQGTTVTVSS
VL: DIQMTQSPSSLSASVGDRVTITCRASQSVNTDVAWYQQKPGKAPKLLIYFASNHYTGVPSRFSGSGSGTDFTFTISSLQPEDIATYYCRQDYSSPFTFGGGTKVEIKR
With B3 the “cell adhesion inhibitory activity relative to mouse Y9A2 antibody” value was roughly 4 fold and the “concentration giving significant inhibition of migration of SW480/hα9 cells toward nOPN-RAA” value was 5 µg/mL.
